Data as given in PMC7502484.

Target: human PTH1R in transiently transfected COS-7 cell membranes (human) (UniProt Q03431)
Test: radioligand binding

Chain of UniProt Q03431 (Q03431 27-593): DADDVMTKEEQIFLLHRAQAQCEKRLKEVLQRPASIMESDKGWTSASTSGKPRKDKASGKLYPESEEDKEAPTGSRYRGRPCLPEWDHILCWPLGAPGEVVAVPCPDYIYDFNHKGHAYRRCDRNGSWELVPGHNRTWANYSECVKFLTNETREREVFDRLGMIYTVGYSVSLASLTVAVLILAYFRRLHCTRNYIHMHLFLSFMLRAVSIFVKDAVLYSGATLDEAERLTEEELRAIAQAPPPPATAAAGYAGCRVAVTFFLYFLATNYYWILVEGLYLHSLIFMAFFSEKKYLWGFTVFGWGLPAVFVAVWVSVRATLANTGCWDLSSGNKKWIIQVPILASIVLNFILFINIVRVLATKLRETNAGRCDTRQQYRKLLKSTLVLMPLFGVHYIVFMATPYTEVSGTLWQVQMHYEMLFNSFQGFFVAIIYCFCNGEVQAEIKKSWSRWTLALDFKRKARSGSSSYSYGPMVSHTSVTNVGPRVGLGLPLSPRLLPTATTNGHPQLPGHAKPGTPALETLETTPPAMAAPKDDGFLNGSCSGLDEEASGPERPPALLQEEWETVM

IC50: 13.7 nM
Substance: PTH(1–34)^H9A (peptide)
